# Test results: the Human Domainome abundance scans (Beltran et al. 2025)
# ± gives the uncertainty stated by the source.
# B1: Homeobox protein cut-like 1, residues 548 to 629; numbered along this chain, P39880 (parent)
# chain: GEEMDTAEIARQVKEQLIKHNIGQRIFGHYVLGLSQGSVSEILARPKPWNKLTVRGKEPFHKMKQFLSDEQNILALRSIQGR
# Variants of: B1
# Assay: abundance fitness (aPCA) (normalised: wild type 0, dead -1); higher = more abundant; growth selection in yeast, the domain comes from the species named
# Conditions: Homo sapiens
row,Variant,abundance fitness
1,GEEMDTAEIARQVKEQLIKHNIGQRIFGHYVLGLSQGSVSEILARPKPWNMLTVRGKEPFHKMKQFLSDEQNILALRSIQGR,-0.011 ± 0.066
2,GEEMDTAEIARQVKEQLIKHNIGQRIFGHYVLGLSQGSVSEILARPKPWNPLTVRGKEPFHKMKQFLSDEQNILALRSIQGR,-0.912 ± 0.27
3,GEEMDTAEIARQVKEQLIKHNIGQRIFGHYVLGLSQGSVSEILARPKPWNWLTVRGKEPFHKMKQFLSDEQNILALRSIQGR,-0.338 ± 0.079
4,GEEMDTAEIARQVKEQLIKHNIGQRIFGHYVLGLSQGSVSEILARPKPWNGLTVRGKEPFHKMKQFLSDEQNILALRSIQGR,-0.198 ± 0.05
5,GEEMDTAEIARQVKEQLIKHNIGQRIFGHYVLGLSQGSVSEILARPKPWNDLTVRGKEPFHKMKQFLSDEQNILALRSIQGR,0.054 ± 0.082
6,GEEMDTAEIARQVKEQLIKHNIGQRIFGHYVLGLSQGSVSEILARPKPWNNLTVRGKEPFHKMKQFLSDEQNILALRSIQGR,0.012 ± 0.07
7,GEEMDTAEIARQVKEQLIKHNIGQRIFGHYVLGLSQGSVSEILARPKPWNTLTVRGKEPFHKMKQFLSDEQNILALRSIQGR,0.011 ± 0.07
8,GEEMDTAEIARQVKEQLIKHNIGQRIFGHYVLGLSQGSVSEILARPKPWNVLTVRGKEPFHKMKQFLSDEQNILALRSIQGR,0.053 ± 0.048
9,GEEMDTAEIARQVKEQLIKHNIGQRIFGHYVLGLSQGSVSEILARPKPWNILTVRGKEPFHKMKQFLSDEQNILALRSIQGR,-0.008 ± 0.12
10,GEEMDTAEIARQVKEQLIKHNIGQRIFGHYVLGLSQGSVSEILARPKPWNQLTVRGKEPFHKMKQFLSDEQNILALRSIQGR,0.122 ± 0.08
11,GEEMDTAEIARQVKEQLIKHNIGQRIFGHYVLGLSQGSVSEILARPKPWNELTVRGKEPFHKMKQFLSDEQNILALRSIQGR,0.063 ± 0.063
12,GEEMDTAEIARQVKEQLIKHNIGQRIFGHYVLGLSQGSVSEILARPKPWNSLTVRGKEPFHKMKQFLSDEQNILALRSIQGR,0.006 ± 0.053
13,GEEMDTAEIARQVKEQLIKHNIGQRIFGHYVLGLSQGSVSEILARPKPWNRLTVRGKEPFHKMKQFLSDEQNILALRSIQGR,-0.047 ± 0.044
14,GEEMDTAEIARQVKEQLIKHNIGQRIFGHYVLGLSQGSVSEILARPKPWNLLTVRGKEPFHKMKQFLSDEQNILALRSIQGR,0.011 ± 0.058
15,GEEMDTAEIARQVKEQLIKHNIGQRIFGHYVLGLSQGSVSEILARPKPWNFLTVRGKEPFHKMKQFLSDEQNILALRSIQGR,-0.098 ± 0.097
16,GEEMDTAEIARQVKEQLIKHNIGQRIFGHYVLGLSQGSVSEILARPKPWNHLTVRGKEPFHKMKQFLSDEQNILALRSIQGR,-0.075 ± 0.12
17,GEEMDTAEIARQVKEQLIKHNIGQRIFGHYVLGLSQGSVSEILARPKPWGKLTVRGKEPFHKMKQFLSDEQNILALRSIQGR,-0.129 ± 0.084

row,Variant,abundance fitness
1,GEEMDTAEIARQVKEQLIKHNIGQRIFGHYVLGLSQGSVSEILARPKPWEKLTVRGKEPFHKMKQFLSDEQNILALRSIQGR,-0.071 ± 0.2
2,GEEMDTAEIARQVKEQLIKHNIGQRIFGHYVLGLSQGSVSEILARPKPWHKLTVRGKEPFHKMKQFLSDEQNILALRSIQGR,-0.074 ± 0.098
3,GEEMDTAEIARQVKEQLIKHNIGQRIFGHYVLGLSQGSVSEILARPKPWMKLTVRGKEPFHKMKQFLSDEQNILALRSIQGR,-0.23 ± 0.11
4,GEEMDTAEIARQVKEQLIKHNIGQRIFGHYVLGLSQGSVSEILARPKPWLKLTVRGKEPFHKMKQFLSDEQNILALRSIQGR,-0.424 ± 0.092
5,GEEMDTAEIARQVKEQLIKHNIGQRIFGHYVLGLSQGSVSEILARPKPWPKLTVRGKEPFHKMKQFLSDEQNILALRSIQGR,-0.003 ± 0.14
6,GEEMDTAEIARQVKEQLIKHNIGQRIFGHYVLGLSQGSVSEILARPKPWTKLTVRGKEPFHKMKQFLSDEQNILALRSIQGR,-0.16 ± 0.067
7,GEEMDTAEIARQVKEQLIKHNIGQRIFGHYVLGLSQGSVSEILARPKPWCKLTVRGKEPFHKMKQFLSDEQNILALRSIQGR,0.064 ± 0.14
8,GEEMDTAEIARQVKEQLIKHNIGQRIFGHYVLGLSQGSVSEILARPKPWWKLTVRGKEPFHKMKQFLSDEQNILALRSIQGR,-0.151 ± 0.085
9,GEEMDTAEIARQVKEQLIKHNIGQRIFGHYVLGLSQGSVSEILARPKPWFKLTVRGKEPFHKMKQFLSDEQNILALRSIQGR,-0.265 ± 0.13
10,GEEMDTAEIARQVKEQLIKHNIGQRIFGHYVLGLSQGSVSEILARPKPWRKLTVRGKEPFHKMKQFLSDEQNILALRSIQGR,-0.04 ± 0.066
11,GEEMDTAEIARQVKEQLIKHNIGQRIFGHYVLGLSQGSVSEILARPKPWYKLTVRGKEPFHKMKQFLSDEQNILALRSIQGR,-0.165 ± 0.13
12,GEEMDTAEIARQVKEQLIKHNIGQRIFGHYVLGLSQGSVSEILARPKPWSKLTVRGKEPFHKMKQFLSDEQNILALRSIQGR,0.073 ± 0.07
13,GEEMDTAEIARQVKEQLIKHNIGQRIFGHYVLGLSQGSVSEILARPKPWKKLTVRGKEPFHKMKQFLSDEQNILALRSIQGR,-0.093 ± 0.076
14,GEEMDTAEIARQVKEQLIKHNIGQRIFGHYVLGLSQGSVSEILARPKPWDKLTVRGKEPFHKMKQFLSDEQNILALRSIQGR,-0.103 ± 0.12
15,GEEMDTAEIARQVKEQLIKHNIGQRIFGHYVLGLSQGSVSEILARPKPWAKLTVRGKEPFHKMKQFLSDEQNILALRSIQGR,-0.062 ± 0.072
16,GEEMDTAEIARQVKEQLIKHNIGQRIFGHYVLGLSQGSVSEILARPKPWQKLTVRGKEPFHKMKQFLSDEQNILALRSIQGR,-0.057 ± 0.13
17,GEEMDTAEIARQVKEQLIKHNIGQRIFGHYVLGLSQGSVSEILARPKPWVKLTVRGKEPFHKMKQFLSDEQNILALRSIQGR,-0.309 ± 0.088
